Source: the supplement of paper PMC10567573

B1: SMOC2 (parent)
chain: PALETQPQGDEEDIASRYPTLWTE
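Note: lentivirally expressed fusions sorted by FACS into six bins by GFP to DsRed ratio, PSI derived from sequencing read proportions per bin multiplied by bin number.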

Variants of: B1
Assay: protein stability index of a GFP-peptide fusion (GPS, HEK-293T) (PSI 1-6); higher = more stable
Settings: c terminus: a fixed tail appended
For PALETQPQGDMEDIASRYPTLWTE [E11M], the protein stability index was 3.59. PALETQPQGDAEDIASRYPTLWTE [E11A] showed a protein stability index of 3.79. PALETQPQGDYEDIASRYPTLWTE [E11Y] gave a protein stability index of 4.02. Variant PALETQPQGDVEDIASRYPTLWTE [E11V] has a protein stability index of 4.24. With PALETQPQGDKEDIASRYPTLWTE [E11K] the protein stability index was 3.92. Work on PALETQPQGDQEDIASRYPTLWTE [E11Q] yielded a protein stability index of 4.22. Variant PALETQPQGDGEDIASRYPTLWTE [E11G] has a protein stability index of 4.04. In the case of PALETQPQGDSEDIASRYPTLWTE [E11S], the protein stability index is reported as 4.38. PALETQPQGDTEDIASRYPTLWTE [E11T] gave a protein stability index of 4.18. Work on PALETQPQGDHEDIASRYPTLWTE [E11H] yielded a protein stability index of 3.41. For PALETQPQGDREDIASRYPTLWTE [E11R], the protein stability index was 3.98. PALETQPQGDNEDIASRYPTLWTE [E11N] showed a protein stability index of 4.26. With PALETQPQGDIEDIASRYPTLWTE [E11I] the protein stability index was 3.36. With PALETQPQGDDEDIASRYPTLWTE [E11D] the protein stability index was 4.21. With PALETQPQGDLEDIASRYPTLWTE [E11L] the protein stability index was 3.84. In the case of PALETQPQGDCEDIASRYPTLWTE [E11C], the protein stability index is reported as 4.43. For PALETQPQGDPEDIASRYPTLWTE [E11P], the protein stability index was 4.82. In the case of PALETQPQGDWEDIASRYPTLWTE [E11W], the protein stability index is reported as 3.96. Work on PALETQPQGDFEDIASRYPTLWTE [E11F] yielded a protein stability index of 3.95. Variant PALETQPQGDEEDICSRYPTLWTE [A15C] has a protein stability index of 4.1. In the case of PALETQPQGDEEDIWSRYPTLWTE [A15W], the protein stability index is reported as 4.14. In the case of PALETQPQGDEEDIFSRYPTLWTE [A15F], the protein stability index is reported as 4.34. In the case of PALETQPQGDEEDIGSRYPTLWTE [A15G], the protein stability index is reported as 4.63. Variant PALETQPQGDEEDIYSRYPTLWTE [A15Y] has a protein stability index of 4.53. In the case of PALETQPQGDEEDIRSRYPTLWTE [A15R], the protein stability index is reported as 4.53. Variant PALETQPQGDEEDIESRYPTLWTE [A15E] has a protein stability index of 4.29. Variant PALETQPQGDEEDISSRYPTLWTE [A15S] has a protein stability index of 3.88. Variant PALETQPQGDEEDIQSRYPTLWTE [A15Q] has a protein stability index of 4.42. PALETQPQGDEEDIHSRYPTLWTE [A15H] gave a protein stability index of 4.11. For PALETQPQGDEEDIISRYPTLWTE [A15I], the protein stability index was 4.57. In the case of PALETQPQGDEEDIKSRYPTLWTE [A15K], the protein stability index is reported as 3.78. Work on PALETQPQGDEEDIMSRYPTLWTE [A15M] yielded a protein stability index of 4.67. With PALETQPQGDEEDINSRYPTLWTE [A15N] the protein stability index was 4.36. PALETQPQGDEEDIDSRYPTLWTE [A15D] gave a protein stability index of 4.33. With PALETQPQGDEEDITSRYPTLWTE [A15T] the protein stability index was 4.36. With PALETQPQGDEEDIVSRYPTLWTE [A15V] the protein stability index was 3.87. PALETQPQGDEEDILSRYPTLWTE [A15L] showed a protein stability index of 4.76. PALETQQQGDEEDIASRYPTLWTE [P7Q] gave a protein stability index of 5.02. With PALETQTQGDEEDIASRYPTLWTE [P7T] the protein stability index was 4.54. With PALETQNQGDEEDIASRYPTLWTE [P7N] the protein stability index was 4.48. PALETQYQGDEEDIASRYPTLWTE [P7Y] gave a protein stability index of 4.28. PALETQRQGDEEDIASRYPTLWTE [P7R] gave a protein stability index of 3.81. Variant PALETQSQGDEEDIASRYPTLWTE [P7S] has a protein stability index of 4.68. Work on PALETQWQGDEEDIASRYPTLWTE [P7W] yielded a protein stability index of 4.02. With PALETQMQGDEEDIASRYPTLWTE [P7M] the protein stability index was 4.62. With PALETQVQGDEEDIASRYPTLWTE [P7V] the protein stability index was 4.06. With PALETQPQGDESDIASRYPTLWTE [E12S] the protein stability index was 4.46. Work on PALETQPQGDEIDIASRYPTLWTE [E12I] yielded a protein stability index of 3.68. For PALETQPQGDEYDIASRYPTLWTE [E12Y], the protein stability index was 3.75. Variant PALETQPQGDEMDIASRYPTLWTE [E12M] has a protein stability index of 3.7. With PALETQPQGDENDIASRYPTLWTE [E12N] the protein stability index was 4.11. PALETQPQGDECDIASRYPTLWTE [E12C] showed a protein stability index of 4.12. In the case of PALETQPQGDEKDIASRYPTLWTE [E12K], the protein stability index is reported as 3.56. Variant PALETQPQGDETDIASRYPTLWTE [E12T] has a protein stability index of 4.34. Variant PALETQPQGDEPDIASRYPTLWTE [E12P] has a protein stability index of 4.33. PALETQPQGDEVDIASRYPTLWTE [E12V] showed a protein stability index of 3.75. Work on PALETQPQGDEADIASRYPTLWTE [E12A] yielded a protein stability index of 3.94. PALETQPQGDEQDIASRYPTLWTE [E12Q] gave a protein stability index of 4.42. Variant PALETQPQGDEHDIASRYPTLWTE [E12H] has a protein stability index of 3.74. Variant PALETQPQGDELDIASRYPTLWTE [E12L] has a protein stability index of 3.68. Variant PALETQPQGDEDDIASRYPTLWTE [E12D] has a protein stability index of 4.41. Work on PALETQPQGDEWDIASRYPTLWTE [E12W] yielded a protein stability index of 3.39. In the case of PALETQPQGDEFDIASRYPTLWTE [E12F], the protein stability index is reported as 4.2. PALETQPQGDEGDIASRYPTLWTE [E12G] showed a protein stability index of 2.63. Work on PALETQPQGDERDIASRYPTLWTE [E12R] yielded a protein stability index of 3.93. In the case of PALETQPQEDEEDIASRYPTLWTE [G9E], the protein stability index is reported as 5.22. For PALETQPQIDEEDIASRYPTLWTE [G9I], the protein stability index was 4.08. In the case of PALETQPQDDEEDIASRYPTLWTE [G9D], the protein stability index is reported as 4.63. Variant PALETQPQVDEEDIASRYPTLWTE [G9V] has a protein stability index of 4.87. With PALETQPQYDEEDIASRYPTLWTE [G9Y] the protein stability index was 4.74. With PALETQPQKDEEDIASRYPTLWTE [G9K] the protein stability index was 4.55. In the case of PALETQPQNDEEDIASRYPTLWTE [G9N], the protein stability index is reported as 4.78. With PALETQPQLDEEDIASRYPTLWTE [G9L] the protein stability index was 4.84. In the case of PALETQPQSDEEDIASRYPTLWTE [G9S], the protein stability index is reported as 5.09. Variant PALETQPQFDEEDIASRYPTLWTE [G9F] has a protein stability index of 4.89. For PALETQPQPDEEDIASRYPTLWTE [G9P], the protein stability index was 4.88. With PALETQPQRDEEDIASRYPTLWTE [G9R] the protein stability index was 4.34. Variant PALETQPQCDEEDIASRYPTLWTE [G9C] has a protein stability index of 5.16. For PALETQPQADEEDIASRYPTLWTE [G9A], the protein stability index was 4.92. In the case of PALETQPQTDEEDIASRYPTLWTE [G9T], the protein stability index is reported as 4.97. PALETQPQMDEEDIASRYPTLWTE [G9M] showed a protein stability index of 4.76. In the case of PALETQPQHDEEDIASRYPTLWTE [G9H], the protein stability index is reported as 4.71. PALETQPQWDEEDIASRYPTLWTE [G9W] showed a protein stability index of 4.62. In the case of PALETQPQGDEENIASRYPTLWTE [D13N], the protein stability index is reported as 4.23. In the case of PALETQPQGDEEIIASRYPTLWTE [D13I], the protein stability index is reported as 3.65. For PALETQPQGDEEMIASRYPTLWTE [D13M], the protein stability index was 4.09. For PALETQPQGDEEYIASRYPTLWTE [D13Y], the protein stability index was 3.59. Variant PALETQPQGDEEQIASRYPTLWTE [D13Q] has a protein stability index of 4.21. PALETQPQGDEECIASRYPTLWTE [D13C] gave a protein stability index of 3.9. Work on PALETQPQGDEEAIASRYPTLWTE [D13A] yielded a protein stability index of 4.35. Variant PALETQPQGDEEFIASRYPTLWTE [D13F] has a protein stability index of 4.14. For PALETQPQGDEEHIASRYPTLWTE [D13H], the protein stability index was 3.71. Work on PALETQPQGDEEKIASRYPTLWTE [D13K] yielded a protein stability index of 2.67. PALETQPQGDEERIASRYPTLWTE [D13R] showed a protein stability index of 4.14.
